The nature of the data set: label from the status in PepcDB records.
Regarding “MPLFSQHTARFSPDVPLEGTSSRELLKRYQPLETLATGGFGSIEICRDTHLRRRVAIKRIPLINGAGMPASDIMDVLREAHTAAMLQHPNIVQVIDFTHDTAYAYLVMEYVDGMSLAEFLHRVDGHSLTFDEAAAIADALGQALTFAHSNGVLHLDIKPANVLIDHSGNVKLTDFGMARLSSAGGFGGSRGGTIGYMPPEQLDIETGTVDERADVFALACVIYEGLCGSAPFMAATPADSLGHIIGGATYPSELIPHFPPGAESALMSALSPMPQDRPNSIEAFCDQLLAGLGSVREGRRSLEQMVGELSDDEQELDDIEPSHYEDDAIEVDPALGWAGTRWSHARDYTMRTISALTCGTFSFLLMQTAGVAALPGLVIAAIAIGAAAGLAPQIGSAISAVGFLVLMANATMQAQGILSMLPVAVIFAAAMSGWWIAWGRTETAASATLTCALALGCLTGNTFLAAGVAAGVASFWLGPASAAAATGMGALFARLATVALSAGGVLGLGNVAAALGDPLLWAAFVLVAATAAASSALLNVHAKRANQGSNLAAIAAIAVTGIGCAAASCLAHHMEIASLAAAVIAKAAVAGILSSIIVGICLYLLGYQRTYTESDLS”, the protein production result is reported as “failed”.
Regarding “MPLLTIGDQFPAYQLTALIGGDLSKVDAKQPGDYFTTITSDEHPGKWRVVFFWPKDFTFVCPTEIAAFSKLNDEFEDRDAQILGVSIDSEFAHFQWRAQHNDLKTLPFPMLSDIKRELSQAAGVLNADGVADRVTFIVDPNNEIQFVSATAGSVGRNVDEVLRVLDALQSDELCACNWRKGDPTLDAGELLKASA”, the protein production result is “not failed”.
In the case of “MPLPKSLKYGDTIGIYSPSSPVTYTSPKRFERAKSYLLQKGFHILEGSLTGRYDYYRSGSIQERAKELNALIRNPNVSCIMSTIGGMNSNSLLPYIDYDAFQNNPKIMIGYSDATALLLGIYAKTGIPTFYGPALVPSFGEFEPFVDDTYKYFLETLLHDQALPYNIKQPLFWSDEFINWEEKTKEKELRPNNWISVTNGQATGRVIGGNLNTIQGIWGSPYMPCIQEGDILFIEDSSKDAATIERSFSFLKINGVFDKVSGIILGKHEQFDDCGTNRKPYEILLEVLQNQRIPLLADFDCCHTHPMITMPIGVQVKMDATNKTIHILEKWKI” it was “not failed”.
As to “MPLSTSDNIAAVIVTHKRVELLRASLEVVAAQTHPVKWIIVVDNGCEDAVRDLLHSVAGDRGIYLPSHTNLGGAGGFAYGFLTALALGADAIWCADDDGRPEGPQVLATLIDAAVTHQLDEVSPVVCNMDDPNRLAFPLRRGLEWRRYRSELIDPNNPSDTLLPGIASLFNGALISAAAMERIGVPDLRLFIRGDEVEYHRRLVRSGLNFGTCLTTAYLHPDGSDEFKPILGGRMHTQYPASDAKRYFTYRNRGYLMNQPGMRRLLPQEYARFAWFFLIQRRDPRGFLEWFKLHQLGRSEKFERPLEHHHHHH”, the protein production entry is “failed”.
As to “MPLSYSSPSLSEERSDDPSKYDGDFGVPQICFCGKQLELVERLIGDQKKTFLKCPMSGQDDNYHVDKGWDLVVHEQCFCIDKRFGEHRELIQNAFKFGGDSNRLQINQIRAEIEDLKDRLDKKDAEITRLMDALGKK”, the protein production entry is “failed”.
“MPLTMLSEGKGCRIKEVRAGLELKRRLTEMGFTPSSSVRLIGCERGNLLVNVNGARYALGKGMAMKIMVEPDPCEGVELGLEHHHHHH”: the protein production result is recorded as “failed”.
In the case of “MPMSSPMMSDTDREDLDAILRTVLVSDKGYVETLSRATGLNGKALTDKAAFTLSRLSAVGGYDYENEALEVAGRYLAEARFTEAEAIYRQVLVSFPEKHGFNHPGYATRLNNLAEVLRATARYDEAESLYRQALEIDREALGLEHPDYGIDLLNLAGLLHDRGRYEAAEPLYREAMTIIGKVVGEEHYRYATAQNNLAGLLQDMLRFEEAEALCRQALEITSKTLGESHSVYATRLNNLAELLGTTERYGEAEPLYRQALEITQKTLGEEHPDFAIRLNNLAVLLKATGRYEEAEPLYRQALEITHRTLGEAHPDYATRLNNFAGLLDSTERYDEAEPLYRQALEICEKALGVEHPSTQTVRANLELFLSEKPD”, the protein production result was “failed”.
As to “MPNFKSKKIKEINLPYSKDDVEFLWLAKNDNVSLIYTKVQEESFFLQIKKAQNGFVIKGDKHTKPSKIGYLQKALKIFKEGFCEDIINEAFGLKNNALIEKTPFIVDNFDELLSRLQGKIYIEIGFGSGRHLLYQAKENPNVLILGVEIYNPALTQVAKLAKAQNVNNILLIQSDARLLLSVLKSKSVEKIFLHFPVPWDKKPHRRVIGKDFCKECARVLVQNGRFELRTDSFEYFNFTLEQFLTFPAPKFSLRKNENLEISSKYEDRWKKQEKNIYDLWVWNFNQECKNYELNEFNLSSVEFSKEDLKKIEQNFKNITIKKDDFFLHFESIYKQDENLLLKVAFGAFNKPEHCYLHLDKTIDFAFKEPFKIQENIKAINELKEILKVQFKI”, the protein production entry is “failed”.

The values above are taken from a protein production outcome set (Wang et al. 2014).
